For assay [1], the target named is C-reactive protein (CRP) (human) (UniProt P02741). Description: ELISA, serum 1:1,000 on plate-coated CRP, detection with goat anti-human CFH. In general terms: In an ELISA, binding on a coated surface is turned into a signal by an enzyme label.
The target is the same in assay [2]. Description: ELISA, purified CFH variant on plate-coated CRP.

Where “and” joins values, the source holds several entries; their conditions need not be identical. Identical values can stand only once.

Sequence of UniProt P02741 (P02741 19-224 limits assumed): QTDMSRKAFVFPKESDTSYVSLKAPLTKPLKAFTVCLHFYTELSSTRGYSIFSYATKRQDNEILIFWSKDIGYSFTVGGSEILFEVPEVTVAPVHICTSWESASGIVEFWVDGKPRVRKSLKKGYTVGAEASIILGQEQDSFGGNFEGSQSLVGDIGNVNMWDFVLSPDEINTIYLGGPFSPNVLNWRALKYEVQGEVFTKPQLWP

With “Complement Factor H 402Y variant (CFH402Y), from human serum of TT homozygotes (from UniProt P08603 19-1231)”, the OD492 in assay [1] is 0.532 OD492 and 0.609 OD492; in assay [2], 0.763 OD492.
